According to article PMC4456664 (2015):

Target: BSA (Bos taurus, UniProt P02769)
Assay: ITC

Sequence of BSA (P02769 25-607): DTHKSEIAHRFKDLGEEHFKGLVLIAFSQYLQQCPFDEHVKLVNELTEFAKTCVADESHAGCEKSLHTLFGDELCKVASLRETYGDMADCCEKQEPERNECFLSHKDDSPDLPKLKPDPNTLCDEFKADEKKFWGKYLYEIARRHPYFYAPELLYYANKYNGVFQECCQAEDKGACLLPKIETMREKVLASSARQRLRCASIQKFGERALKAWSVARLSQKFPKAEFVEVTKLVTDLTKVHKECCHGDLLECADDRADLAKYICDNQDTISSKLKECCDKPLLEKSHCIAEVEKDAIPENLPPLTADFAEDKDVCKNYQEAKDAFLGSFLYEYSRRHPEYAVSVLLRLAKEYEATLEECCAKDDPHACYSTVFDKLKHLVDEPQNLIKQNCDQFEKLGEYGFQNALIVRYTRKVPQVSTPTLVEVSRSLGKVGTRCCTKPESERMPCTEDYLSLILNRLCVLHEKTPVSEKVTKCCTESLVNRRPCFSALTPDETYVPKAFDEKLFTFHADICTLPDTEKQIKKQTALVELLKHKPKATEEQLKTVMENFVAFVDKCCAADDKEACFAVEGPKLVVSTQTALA

Kd: 3000 nM
B1: PYL10 (protein)
chain: MNGDETKKVESEYIKKHHRHELVESQCSSTLVKHIKAPLHLVWSIVRRFDEPQKYKPFISRCVVQGKKLEVGSVREVDLKSGLPATKSTEVLEILDDNEHILGIRIVGGDHRLKNYSSTISLHSETIDGKTGTLAIESFVVDVPEGNTKEETCFFVEALIQCNLNSLADVTERLQAESMEKKI
